Laboratory results from the supplement of paper PMC12764529.
± gives the half width of the 95% confidence interval.

Experiments:
[1] = folding stability dG unfold (combined trypsin and chymotrypsin); higher = more stable
In short: (§1)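 Unfolding free energy was derived, per protease or combined, against a sequence-predicted unfolded-state K50 and a shared folded-state K50, starting from K50 inferred by Bayesian fitting of sequencing counts. Digestion with trypsin and chymotrypsin was carried out on designed mini-proteins under 80 residues without cysteine in a PA-tagged cDNA display construct. Only designs with AlphaFold2 dimer inter-PAE above 15 were kept.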

[2] = folding stability dG unfold from trypsin proteolysis; higher = more stable
In short: as §1

[3] = folding stability dG unfold from chymotrypsin proteolysis; higher = more stable
In short: as §1

Sequence	folding stability dG unfold [1] [kcal/mol]	folding stability dG unfold [2] [kcal/mol]	folding stability dG unfold [3] [kcal/mol]
SAGGSAGGSAGNWIIRIRWPGKSIMFVLPEGMNVDEIATNIQDEFNYPIDIEVIPPGQPISAGGSAGGSAGG [r11_805_TrROS]	2.5 ± 0.15	2.15 ± 0.071	2.65 ± 0.062
SAGGSAGGSAGNWRWIMIPIKVPPGLEAGEEIEIKIPNGVEVWYHYNEPGTIWMMIRVPDSAGGSAGGSAGG [r11_362_TrROS]	2.88 ± 0.085	2.69 ± 0.069	2.96 ± 0.037
SAGGSAGGSAGPEKMRIEDIEHERNPEDGRHTVKIKIPNGPDITFQFTDPEDLDDFKLEVSAGGSAGGSAGG [r11_711_TrROS]	0.0382 ± 0.22	-0.274 ± 0.079	0.334 ± 0.075
SAGGSAGGSAGPEKTVTLRVKITNADGQEQTLELTAETEEEALAALRALLPPGAKVEIEPSAGGSAGGSAGG [r11_671_TrROS_Hall]	3.35 ± 0.087	1.99 ± 0.067	3.66 ± 0.07
SAGGSAGGSAGPIKITSVEYDPNSGTIIARFPDGVVIRIKMNPDGNFKIDEIYPIKPGDLSAGGSAGGSAGG [r17_61_TrROS]	2.02 ± 0.14	2.37 ± 0.088	1.57 ± 0.08
SAGGSAGGSAGPKIEIEKLPGPYYLLKIYLPDENGNPIEALVVATSPEEAVEKLKELLKSSAGGSAGGSAGG [r11_819_TrMRF]	3.18 ± 0.098	3.21 ± 0.14	3.15 ± 0.043
SAGGSAGGSAGPMYIITHTSPNEPIEFIFPPDDAEEFLKKLKLPPNMNIKVEPIDPDDMKSAGGSAGGSAGG [r17_395_TrROS]	0.367 ± 0.18	0.0355 ± 0.07	0.715 ± 0.21
SAGGSAGGSAGPNMVPIGKLTIEIRNPDNGNPLRIRIDLYVVPAPDGWMIALRILDIEPPSAGGSAGGSAGG [r11_113_TrROS]	3.7 ± 0.26	2.45 ± 0.13	4.15 ± 0.21
SAGGSAGGSAGPPDFQIYVDIETQRNPGNGRYYVTMKIYIGNKPIVEITIPAGEPLKIKFSAGGSAGGSAGG [r17_281_TrROS]	3.4 ± 0.14	2.66 ± 0.12	3.9 ± 0.045
SAGGSAGGSAGPPDIEVNYYRYEGYYRVNISFPNNRPIEIMMKGPGMPAEDFVKKLLDQLSAGGSAGGSAGG [r11_313_TrROS]	2.1 ± 0.14	1.84 ± 0.1	2.35 ± 0.059
SAGGSAGGSAGPPKPIWFRVKEVEVNPDNGTLEIKFENGQTITIPPENIENLPPGDWIRISAGGSAGGSAGG [r11_124_TrROS]	1.33 ± 0.058	0.838 ± 0.029	1.53 ± 0.061
SAGGSAGGSAGPPNIKMEPETRTYVLPGGWAIRVSIMKIKPPDGKPLIMAMEEIIPPDDPSAGGSAGGSAGG [r17_312_TrROS]	1.27 ± 0.31	0.958 ± 0.1	1.27 ± 0.23
SAGGSAGGSAGPPPFKLKIDEMEMADDMFRIKLTIEDPNGEVTVDYWIGNQPFKLRIKPDSAGGSAGGSAGG [r17_45_TrROS]	2.12 ± 0.17	1.53 ± 0.039	2.39 ± 0.17
SAGGSAGGSAGPTYKIKIYFEDTGVEAEVEINEDGSLTITVPKELLPPGAKVKVEIVKVPSAGGSAGGSAGG [r17_392_TrROS_Hall]	1.57 ± 0.26	1.28 ± 0.057	1.66 ± 0.098
SAGGSAGGSAGPVLKIKVEVKLEKKYDKNGKLVEEKLEVKVEIELLEPAPPASDEELKKKSAGGSAGGSAGG [r11_131_TrROS_Hall]	1.6 ± 0.39	0.29 ± 0.24	1.69 ± 0.2
SAGGSAGGSAGPVRTIEILFPFDPGESLEFEIRIPGNGRKIKVSIEPYPNGWMRIKITVYSAGGSAGGSAGG [r17_131_TrROS]	5.69 ± 0.21	4.75 ± 0.21	5.68 ± 0.26
SAGGSAGGSAGPWVWIIMIHMEIERVTVEVRPDPDGKWEYKLEITIKIEIHIIPLPPGATSAGGSAGGSAGG [r11_24_TrROS]	5.26 ± 0.17	3.55 ± 0.15	5.37 ± 0.11
SAGGSAGGSAGPYKVKVTLKNGEVLEFTIPEEFKDLKEVKIDLPEELKENIVKVEIEPLESAGGSAGGSAGG [r17_528_TrMRF]	2.95 ± 0.059	2.56 ± 0.1	3.199 ± 0.02
SAGGSAGGSAGQTLLVEVNGQLAEITIDPDVPGQITITLPNGEQITLEVRLEPPPPPEEESAGGSAGGSAGG [r17_85_TrROS_Hall]	1.6 ± 0.16	2.08 ± 0.3	1.39 ± 0.17
SAGGSAGGSAGREIADEIKDILQEKGFEIKDIEVTRPPNGYPMVEITVRHDNGKKWTIWISAGGSAGGSAGG [r11_780_TrROS]	1.76 ± 0.099	1.5 ± 0.038	1.91 ± 0.095
SAGGSAGGSAGRLLLEGLGADEVLRLEPEPDRVPIVVRHRDGGRDVVIEMDFEEAVRAILSAGGSAGGSAGG [r11_630_TrMRF]	-0.771 ± 0.42	-1.22 ± 0.67	-0.538 ± 0.28

Sequence	folding stability dG unfold [1] [kcal/mol]	folding stability dG unfold [2] [kcal/mol]	folding stability dG unfold [3] [kcal/mol]
SAGGSAGGSAGRVEKIVSNLKPLGYEVLSVEETEDYVLAVVYDPFTDEPRVFRFPKDSPFSAGGSAGGSAGG [r11_428_TrMRF]	1.41 ± 0.11	1.27 ± 0.017	1.18 ± 0.13
SAGGSAGGSAGRVVKITLPDGSSLDIDVPADDDLTKEEIEARLTVPPGEKVSIKSIEILEESAGGSAGGSAG [r3_465_JUSTAS]	0.628 ± 0.085	0.0468 ± 0.037	0.899 ± 0.033
SAGGSAGGSAGSETYYIKIGDKLYTVTVEPDSITVKYPETSEEKTFSSSLPGISLEEILSSAGGSAGGSAGG [r11_648_JUSTAS]	1.71 ± 0.065	1.63 ± 0.041	1.68 ± 0.054
SAGGSAGGSAGSFLIVVRFPNSTVLFDAPEDTDVDALKKAIKKLFNADIEVEVVPKEKPLSAGGSAGGSAGG [r11_805_TrMRF]	1.79 ± 0.093	1.75 ± 0.058	1.55 ± 0.051
SAGGSAGGSAGSFTVLVTEVLDPDDPLYLKLQKELGLPPENIVRFKLYTFSSPEEVKKKISAGGSAGGSAGG [r11_83_TrMRF]	1.5 ± 0.065	0.923 ± 0.035	1.99 ± 0.13
SAGGSAGGSAGSISRTATPDGYLYTFTDSSGKTHTIPSPVPGMPLSEVAERARAAGFSTVESSAGGSAGGSA [r18_83_JUSTAS]	0.618 ± 0.08	-0.188 ± 0.12	0.968 ± 0.065
SAGGSAGGSAGSKKAVIGGDGATVTYYPPLGYALVTFPDGTAALVDLKTGEIVEIAKTNDSAGGSAGGSAGG [r11_149_TrMRF]	2 ± 0.11	1.04 ± 0.059	2.29 ± 0.037
SAGGSAGGSAGSLTLVSTSSDETEEPVVRYREVYAGPVPVRVTAEESLENPGNPRLRVVLSAGGSAGGSAGG [r11_618_JUSTAS]	-0.251 ± 0.14	-0.53 ± 0.22	-0.275 ± 0.39
SAGGSAGGSAGSMEEALAAELRARGGVAVEIERIHVPSELAPGTKLPADEVLIRVTARPAASAGGSAGGSAG [r3_229_JUSTAS]	0.525 ± 0.17	-0.139 ± 0.46	0.683 ± 0.12
SAGGSAGGSAGSMKTLVTTETSTVPGTTTTVTTTTTTTYDPTSSETTTTTTPVTNPAPAASAGGSAGGSAGG [r17_309_JUSTAS]	0.711 ± 0.071	-0.827 ± 0.28	1.05 ± 0.02
SAGGSAGGSAGSMQTEVTFERGPGRLTTTTTTKFPDNRWSTTTSTSPVPARPPLPPAPVLLSAGGSAGGSAG [r3_68_JUSTAS]	-0.416 ± 0.22	-0.817 ± 0.52	-0.709 ± 0.94
SAGGSAGGSAGSMSTPRSSEKMEKDGGGETLVRTLTYPEPSLTRTVRTPPDGSSSSSTSAPSAGGSAGGSAG [r3_28_JUSTAS]	0.235 ± 0.2	-0.452 ± 0.37	0.54 ± 0.11
SAGGSAGGSAGSMTITRTLPGLTVTFTRLPDPNKETITFKLGDKWTTVPASTLSSSVISLSAGGSAGGSAGG [r11_152_JUSTAS]	-0.14 ± 0.21	-0.434 ± 0.38	-0.142 ± 0.34
SAGGSAGGSAGSMVSVEVEESELPPPYRLVTEKVSLPGSETVIEVVRDPATGEVLETKVFASSAGGSAGGSA [r18_507_JUSTAS]	3.36 ± 0.59	3.77 ± 0.28	3.33 ± 0.25
SAGGSAGGSAGSMVTKTTTVEEKIGPGNLKLVKEKITIYDPSTGKPIKEETKITIEPVLLSAGGSAGGSAGG [r17_317_JUSTAS]	0.148 ± 0.38	-0.493 ± 0.16	0.452 ± 0.24
SAGGSAGGSAGSPLEEALAEARATGGPVTIRLPDGSEVVITVTEDEGELRVEVRSAAELGSAGGSAGGSAGG [r17_463_JUSTAS]	1 ± 0.099	0.99 ± 0.027	0.911 ± 0.042
SAGGSAGGSAGSTILIKNEDGSLLLVTVSDGSITIERLPPAPPPKTYEKDPETKEWREVTSAGGSAGGSAGG [r11_590_TrROS_Hall]	0.878 ± 0.057	1.06 ± 0.021	0.647 ± 0.063
SAGGSAGGSAGSTITIRINGKTYTIEVDESEEEALERIRELARALLPEGEVEVTVERREPSAGGSAGGSAGG [r11_1028_TrROS_Hall]	2.98 ± 0.079	2.2 ± 0.047	3.374 ± 0.026
SAGGSAGGSAGSTLTVTLTVRDPANPGTTTTVTLTLEVEPAPPPEVVVVKDANGNETLVPSAGGSAGGSAGG [r11_419_TrROS_Hall]	1.63 ± 0.061	1.29 ± 0.047	1.91 ± 0.052
SAGGSAGGSAGSYTVEPVELDDDSTLIRYTYPTDPNAVFPVVTVYPDGPVLTEPVVYSSSSAGGSAGGSAGG [r11_747_JUSTAS]	0.244 ± 0.091	0.271 ± 0.037	0.0377 ± 0.11
SAGGSAGGSAGTATLTDPNGVRIEVFPDGTVRATVYRPDPSTGEWKLAATFTFPLHPDAFSAGGSAGGSAGG [r11_497_TrMRF]	1.94 ± 0.066	1.72 ± 0.027	2 ± 0.067
